Assay results taken from PMC12830165 (The Journal of Biological Chemistry, 2025).

What was measured:
[1] = target: T1, human ORC1-5 (HsORC1-5, with ORC1ΔN) (Homo sapiens, UniProt O43929+Q13415, O43929:N78S/Q13415:R720Q); assay: NADH-coupled steady-state ATPase assay; assay type: biochemical; conditions: ATP 0.13 uM to 0.5 mM, 1 uM ORC, 10 mM Mg acetate, 300 mM K glutamate, pH 7.6, 37 C; ORC1-ORC4 ATPase site
T1 construct: ORC1 N-terminally truncated (ORC1ΔN399, probably starts at residue 400), ORC4 with natural variant N78S; 6xHis-TEV (ORC1) and MBP-TEV (ORC4) tags cleaved; baculovirus/High Five cells; ORC6 not included; with Origin recognition complex subunit 2; Origin recognition complex subunit 3; Origin recognition complex subunit 5

[2] = target: ORC1-5 ORC1 R666W (human, UniProt Q13415;Q13416;Q9UBD5;O43929;O43913 400-861;1-577;1-711;1-436;1-435, R666W;N78S); assay: fluorescence anisotropy; 1 mM ATP, 10 mM Mg acetate; 25 mM HEPES-KOH pH 7.6, 300 mM K glutamate, 10% glycerol, 1 mM DTT, 10 mM Mg acetate, 0.01% NP-40, 0 or 1 mM ATP, 1 nM DNA, 30 min at 22 °C; Hill fit (Kd,app); conditions: protein: recombinant; tags: 6xHis-TEV (ORC1) and MBP-TEV (ORC4), cleaved by TEV; copies: 1;1;1;1;1; label: 5' fluorescein-T on strand 1; blunt (40 bp; possible 1 nt 5' FluorT overhang)
[3] = target: ORC1-5 ORC1 R720Q (human, UniProt Q13415;Q13416;Q9UBD5;O43929;O43913 400-861;1-577;1-711;1-436;1-435, R720Q;N78S); assay: as above; conditions: protein: recombinant; tags: 6xHis-TEV (ORC1) and MBP-TEV (ORC4), cleaved by TEV; copies: 1;1;1;1;1; label: 5' fluorescein-T on strand 1; blunt (40 bp; possible 1 nt 5' FluorT overhang)
[4] = target: ORC1-5 (WT, ORC1ΔN) (human, UniProt Q13415;Q13416;Q9UBD5;O43929;O43913 400-861;1-577;1-711;1-436;1-435, N78S); assay: as above; conditions: protein: recombinant; tags: 6xHis-TEV (ORC1) and MBP-TEV (ORC4), cleaved by TEV; copies: 1;1;1;1;1; label: 5' fluorescein-T on strand 1; blunt (40 bp; possible 1 nt 5' FluorT overhang)
[5] = target: ORC1-5 ORC4 Y174C (human, UniProt Q13415;Q13416;Q9UBD5;O43929;O43913 400-861;1-577;1-711;1-436;1-435, Y174C;ORC4:N78S); assay: as above; conditions: protein: recombinant; tags: 6xHis-TEV (ORC1) and MBP-TEV (ORC4), cleaved by TEV; copies: 1;1;1;1;1; label: 5' fluorescein-T on strand 1; blunt (40 bp; possible 1 nt 5' FluorT overhang)

T1 sequence (Q13415 400-861 R720Q): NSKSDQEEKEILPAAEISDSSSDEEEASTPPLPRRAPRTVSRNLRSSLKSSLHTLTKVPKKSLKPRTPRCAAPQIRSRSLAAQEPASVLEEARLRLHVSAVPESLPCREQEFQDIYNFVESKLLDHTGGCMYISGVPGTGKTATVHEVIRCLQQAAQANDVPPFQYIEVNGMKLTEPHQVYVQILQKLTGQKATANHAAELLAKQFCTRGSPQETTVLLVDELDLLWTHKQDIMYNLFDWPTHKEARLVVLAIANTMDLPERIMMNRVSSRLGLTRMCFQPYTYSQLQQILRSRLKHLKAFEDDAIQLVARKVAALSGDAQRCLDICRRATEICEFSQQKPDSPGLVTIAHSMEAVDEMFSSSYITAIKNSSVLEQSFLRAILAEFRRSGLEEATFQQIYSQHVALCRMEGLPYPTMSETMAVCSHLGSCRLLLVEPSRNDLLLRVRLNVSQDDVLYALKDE
T1 sequence (O43929 whole entry N78S, the tested form may be a part): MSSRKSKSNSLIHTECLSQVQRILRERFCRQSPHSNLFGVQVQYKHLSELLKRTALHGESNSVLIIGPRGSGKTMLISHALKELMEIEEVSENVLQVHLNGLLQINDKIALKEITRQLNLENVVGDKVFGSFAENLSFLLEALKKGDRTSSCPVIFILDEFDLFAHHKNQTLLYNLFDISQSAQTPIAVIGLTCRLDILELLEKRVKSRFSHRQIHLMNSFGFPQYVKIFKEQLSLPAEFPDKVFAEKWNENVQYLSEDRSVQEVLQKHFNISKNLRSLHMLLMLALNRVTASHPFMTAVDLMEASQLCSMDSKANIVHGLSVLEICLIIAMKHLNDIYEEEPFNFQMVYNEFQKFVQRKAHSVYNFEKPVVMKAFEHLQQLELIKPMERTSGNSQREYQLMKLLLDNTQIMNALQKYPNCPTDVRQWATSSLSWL
T1 sequence (Q13416 whole entry partner, the tested form may be a part): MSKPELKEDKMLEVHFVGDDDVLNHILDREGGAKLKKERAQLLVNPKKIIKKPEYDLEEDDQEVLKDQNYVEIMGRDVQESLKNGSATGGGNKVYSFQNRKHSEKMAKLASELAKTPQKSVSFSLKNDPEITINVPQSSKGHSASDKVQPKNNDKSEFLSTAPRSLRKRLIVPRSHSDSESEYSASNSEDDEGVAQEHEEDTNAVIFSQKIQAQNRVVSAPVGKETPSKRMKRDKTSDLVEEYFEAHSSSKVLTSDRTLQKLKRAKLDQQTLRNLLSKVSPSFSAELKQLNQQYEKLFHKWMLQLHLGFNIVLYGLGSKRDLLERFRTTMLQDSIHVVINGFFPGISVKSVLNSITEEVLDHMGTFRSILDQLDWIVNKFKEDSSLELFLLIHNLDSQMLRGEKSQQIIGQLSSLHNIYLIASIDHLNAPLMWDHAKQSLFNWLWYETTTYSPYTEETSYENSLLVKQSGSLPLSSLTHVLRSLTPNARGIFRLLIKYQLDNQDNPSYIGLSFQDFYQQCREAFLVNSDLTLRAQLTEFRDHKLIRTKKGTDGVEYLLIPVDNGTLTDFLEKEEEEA
T1 sequence (Q9UBD5 whole entry partner, the tested form may be a part): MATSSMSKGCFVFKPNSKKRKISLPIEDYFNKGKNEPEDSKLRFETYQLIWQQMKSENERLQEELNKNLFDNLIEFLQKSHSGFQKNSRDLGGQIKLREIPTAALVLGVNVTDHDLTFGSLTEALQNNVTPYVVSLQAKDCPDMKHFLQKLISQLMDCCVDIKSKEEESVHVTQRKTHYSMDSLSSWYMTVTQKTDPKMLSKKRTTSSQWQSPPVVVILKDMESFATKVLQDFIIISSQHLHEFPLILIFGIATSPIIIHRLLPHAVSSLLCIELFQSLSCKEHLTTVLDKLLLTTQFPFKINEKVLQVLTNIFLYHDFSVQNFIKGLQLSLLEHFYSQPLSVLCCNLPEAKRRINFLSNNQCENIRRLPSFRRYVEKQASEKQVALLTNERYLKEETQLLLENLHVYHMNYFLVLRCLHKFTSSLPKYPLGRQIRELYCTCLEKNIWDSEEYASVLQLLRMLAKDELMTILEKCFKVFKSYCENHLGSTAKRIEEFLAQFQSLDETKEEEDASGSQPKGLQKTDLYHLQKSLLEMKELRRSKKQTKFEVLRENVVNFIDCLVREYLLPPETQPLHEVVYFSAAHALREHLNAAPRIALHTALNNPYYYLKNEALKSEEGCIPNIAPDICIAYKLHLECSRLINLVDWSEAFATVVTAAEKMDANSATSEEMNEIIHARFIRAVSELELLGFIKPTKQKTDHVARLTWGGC
T1 sequence (O43913 whole entry partner, the tested form may be a part): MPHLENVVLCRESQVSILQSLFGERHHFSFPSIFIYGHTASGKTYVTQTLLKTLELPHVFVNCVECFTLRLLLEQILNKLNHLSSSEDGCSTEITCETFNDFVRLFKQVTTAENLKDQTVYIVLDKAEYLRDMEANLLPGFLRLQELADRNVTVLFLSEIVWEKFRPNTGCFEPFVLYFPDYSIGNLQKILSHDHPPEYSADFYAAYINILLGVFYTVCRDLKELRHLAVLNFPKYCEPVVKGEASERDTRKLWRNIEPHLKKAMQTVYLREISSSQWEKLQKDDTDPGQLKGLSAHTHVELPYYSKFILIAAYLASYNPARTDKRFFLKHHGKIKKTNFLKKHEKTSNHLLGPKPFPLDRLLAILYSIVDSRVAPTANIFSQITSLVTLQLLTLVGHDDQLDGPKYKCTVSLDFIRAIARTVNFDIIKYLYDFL

Nc1ncnc2c1ncn2[C@@H]1O[C@H](COP(=O)(O)OP(=O)(O)OP(=O)(O)O)[C@@H](O)[C@H]1O [ATP]
NADH-coupled steady-state ATPase assay [1]: with the largest ATP hydrolysis defect observed with ORC1R720Q

B1: 40 bp fluorescein dsDNA (dsDNA)
DNA 1: TTTTGAAAAGCAAGCATAAAAGATCTAAACATAAAATCTG
DNA 2: CAGATTTTATGTTTAGATCTTTTATGCTTGCTTTTCAAAA
Kd [2]: 49.9 nM
binding result [3]: no binding
Kd [4]: 37.6 nM
binding result [5]: no binding
